Patent US20140187758A1

Legend:
[1] = molecular target: European Corn Borer-cadherin (Ostrinia nubilalis)
[2] = molecular target: European Corn Borer-aminopeptidase 1 (Ostrinia nubilalis)

**Q.** Which Kd [1] does the source give for “Cry1Ac core toxin (trypsin-cleaved Cry1Ac holotoxin) (from UniProt P05068 29-623) (ligand)” here?
**A.** 0.048 µM

**Q.** And the Kd [2]?
**A.** 0.107 µM
